The values below come from patent US20190300618A1 (Merck Sharp & Dohme, published 2019).

Residue numbers refer to the chain shown, from its start.

Common to all, as to assay: flow cytometry, CHO-K1; sub-column 2 of 2
Test [1] addresses T1, G16A.
T1 construct: also called hCD27 G16A
T1 receptor: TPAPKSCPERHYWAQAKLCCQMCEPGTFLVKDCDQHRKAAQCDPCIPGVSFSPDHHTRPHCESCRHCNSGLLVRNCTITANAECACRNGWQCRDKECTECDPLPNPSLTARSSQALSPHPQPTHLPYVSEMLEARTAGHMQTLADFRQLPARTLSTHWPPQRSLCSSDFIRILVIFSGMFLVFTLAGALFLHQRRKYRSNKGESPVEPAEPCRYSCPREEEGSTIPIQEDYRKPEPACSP

For test [2], the target named is T2, R87A.
T2 construct: also called hCD27 R87A
T2 receptor: T1 receptor with A16G, R87A

Test [3] concerns the target T3, V49A.
T3 construct: also called hCD27 V49A
T3 receptor: T1 receptor with A16G, V49A

Test [4] has as its target T4, G89A.
T4 construct: also called hCD27 G89A
T4 receptor: T1 receptor with A16G, G89A

The target in test [5] is T5, S63A.
T5 construct: also called hCD27 S63A
T5 receptor: T1 receptor with A16G, S63A

For test [6], the target named is T6, P44A.
T6 construct: also called hCD27 P44A
T6 receptor: T1 receptor with A16G, P44A

Test [7] has as its target T7, K38A.
T7 construct: also called hCD27 K38A
T7 receptor: T1 receptor with A16G, K38A

Test [8] has as its target T8, Q91A.
T8 construct: also called hCD27 Q91A
T8 receptor: T1 receptor with A16G, Q91A

Test [9] deals with T9, W90A.
T9 construct: also called hCD27 W90A
T9 receptor: T1 receptor with A16G, W90A

For test [10], the target named is T10, V30A.
T10 construct: also called hCD27 V30A
T10 receptor: T1 receptor with A16G, V30A

For the molecule 1A4 (mouse IgG1) (antibody), the % of WT hCD27 binding (geo mean FITC) in test [1] is 97.3%; in test [2], 108%; in test [3] it was 97%; in test [4], 81.8%; in test [5], 163%; in test [6], 90.5%. Moreover, the % of WT hCD27 binding (geo mean FITC) in [7] came out at 97.7%; in test [8], 120%; in [9], 96.4%; in [10], 102%.

In the case of 9F4 (mouse IgG2a) (antibody), the % of WT hCD27 binding (geo mean FITC) was found to be 102% in test [1]; 98.8% in [2]; 92.1% in test [3]; 77.5% in test [4]; 149% in [5]; 91.7% in [6]. The % of WT hCD27 binding (geo mean FITC) was determined as 31.6% in test [7], 111% in test [8], 85.7% in [9] and 95.6% in test [10].

B1: Antibody hCD27.131A (mouse parental 131A) (antibody, V domains shown)
VH: QIQLVQSGPELKKPGETVKISCKASGYTFTNYGMNWVKQAPGKGLKWMGWINTNTGEPTYAEEFKGRFAFSLETSATTAYLQINNLKNEDTATYFCAREGDAMDYWGQGTSVTVSS
VL: QIVLTQSPAIMSASPGEKVTMTCSASSSVSYMHWYQQKSGTSPKRWIYDTSKLASGVPARFSGSGSGTSYSLTISSMEAEDAATYYCQQWNSYPFTFGSGTKLEIK
notes: mouse IgG1; also called mouse hCD27.131A
As for B1, the “% of WT hCD27 binding (geo mean FITC)” value in test [1] came out at 108%; in [2] it was 111%; in [3], 99.8%; in test [4] it was 82.9%; in test [5] it was 141%; in test [6], 91%. For the same molecule, the “% of WT hCD27 binding (geo mean FITC)” value was 11.8% in test [7], 136% in test [8], 102% in [9] and 94% in test [10].
